Tested on: TrkB (TrkB-Flag)
Test: Co-IP of MDGA2 and its truncations with TrkB-Flag in HEK293T cells
Format: binding, human
Details: HEK293T cells co-transfected with TrkB-Flag and GFP-tagged MDGA2 constructs
Procedure: Fig 3 MDGA2 interacts with TrkB and suppresses TrkB activity. (A) Primary hippocampal neurons derived from Mdga2^ +/− (Het) mice and their wild-type (WT) littermates at DIV 7 were treated with different doses of BDNF for 30 min. Equal amounts of protein lysates were subjected to immunoprecipitation (IP) with an anti-TrkB antibody, followed by immunoblotting with an anti-phosphotyrosine (pTyr) antibody or the anti-TrkB antibody. The pTyr levels were quantified by densitometry, normalized to total TrkB levels, and then compared to those of WT controls. n = 3 per group. (B) WT mouse brain lysates were subjected to IP with an anti-MDGA2 antibody and a control IgG, and immunoblotted (IB) for the components indicated. mBDNF, mature BDNF; ImBDNF, immature BDNF. (C) Hippocampal neurons from WT mice at DIV 7 were immunostained with antibodies against MDGA2 (red) and TrkB (green), and then counter-stained with DAPI (blue). Images were acquired by a confocal microscope. Scale bar: 10 μm. (D) Surface plasmon resonance (SPR) analysis of the binding between recombinant MDGA2 protein and recombinant TrkB protein. TrkB was immobilized on a Biacore CM5 chip and tested for its binding with MDGA2 at the concentrations indicated. (E) Computer simulation of the binding mode of TrkB and MDGA2. The predicted binding domain of TrkB (the d5 domain) is highlighted by a red square and labeled in brown. The predicted binding domain of MDGA2 (the MAM domain) is highlighted by a red square and labeled in yellow. […] Immunoprecipitated TrkB levels were quantified by densitometry, normalized to input levels, and compared to respective controls (set to one arbitrary units). n = 3 per group. […] Levels of phosphorylated proteins were quantified by densitometry, normalized to respective total protein levels and compared to controls (set to one arbitrary units). n = 6 per group. […] P-values were determined by two-tailed unpaired Student t-test in (A) and one-way ANOVA with Tukey’s multiple comparisons test in (H, I, J). *p < 0.05, **p < 0.01, ***p < 0.001, ns: not significant. […]

B1: MDGA2-ΔM2: MDGA2 lacking the C-terminal region (aa 834–921) of MAM domain (protein)
chain: PPTVRIVHSGLACNIEEERYSERVYTIREGETLELTCLVTGHPRPQIRWTKTAGSASDRFQDSSVFNETLRITNIQRHQGGRYYCKAENGLGSPAIKSIRVDVYYLDDPVVTVHQSIGEAKEQFYYERTVFLRCVANSNPPVRYSWRRGQEVLLQGSDKGVEIYEPFFTQGETKILKLKNLRPQDYANYSCIASVRNVCNIPDKMVSFRLSNKTASPSIKLLVDDPIVVNPGEAITLVCVTTGGEPAPSLTWVRSFGTLPEKTVLNGGTLTIPAITSDDAGTYSCIANNNVGNPAKKSTNIIVRALKKGRFWITPDPYHKDDNIQIGREVKISCQVEAVPSEELTFSWFKNGRPLRSSERMVITQTDPDVSPGTTNLDIIDLKFTDFGTYTCVASLKGGGISDISIDVNISSSTVPPNLTVPQEKSPLVTREGDTIELQCQVTGKPKPIILWSRADKEVAMPDGSMQMESYDGTLRIVNVSREMSGMYRCQTSQYNGFNVKPREALVQLIVQYPPAVEPAFLEIRQGQDRSVTMSCRVLRAYPIRVLTYEWRLGNKLLRTGQFDSQEYTEYAVKSLSNENYGVYNCSIINEAGAGRCSFLVTGKAYAPEFYYDTYNPVWQNRHRVYSYSLQWTQMNPDAVDRIVAYRLGIRQAGQQRWWEQEIKINGNIQKGELITYNLTELIKPEAYEVRLTPLTKFGEGDSTIRVIKYSAPVNPHLREFHCGFEDGNICLFTQDDTDNFDWTKQSTATRNTKYTPNTGPNADRSGSKEGFYMYIETSRPRLEGEKARLLSPVFSIAPKNPYGPTNTQDLATKNSVD
modifications: left off: GFP, end not stated, kept
notes: MDGA2 lacking the C-terminal region (aa 834–921) of MAM domain
interaction with TrkB (Co-IP): not M2 abolished the interaction

B2: MDGA2-ΔM1: MDGA2 lacking the N-terminal region (aa 746–833) of MAM domain (protein)
chain: PPTVRIVHSGLACNIEEERYSERVYTIREGETLELTCLVTGHPRPQIRWTKTAGSASDRFQDSSVFNETLRITNIQRHQGGRYYCKAENGLGSPAIKSIRVDVYYLDDPVVTVHQSIGEAKEQFYYERTVFLRCVANSNPPVRYSWRRGQEVLLQGSDKGVEIYEPFFTQGETKILKLKNLRPQDYANYSCIASVRNVCNIPDKMVSFRLSNKTASPSIKLLVDDPIVVNPGEAITLVCVTTGGEPAPSLTWVRSFGTLPEKTVLNGGTLTIPAITSDDAGTYSCIANNNVGNPAKKSTNIIVRALKKGRFWITPDPYHKDDNIQIGREVKISCQVEAVPSEELTFSWFKNGRPLRSSERMVITQTDPDVSPGTTNLDIIDLKFTDFGTYTCVASLKGGGISDISIDVNISSSTVPPNLTVPQEKSPLVTREGDTIELQCQVTGKPKPIILWSRADKEVAMPDGSMQMESYDGTLRIVNVSREMSGMYRCQTSQYNGFNVKPREALVQLIVQYPPAVEPAFLEIRQGQDRSVTMSCRVLRAYPIRVLTYEWRLGNKLLRTGQFDSQEYTEYAVKSLSNENYGVYNCSIINEAGAGRCSFLVTGKAYAPEFYYDTYNPVWQNRHRVYSYSLQWTQMNPDAVDRIVAYRLGIRQAGQQRWWEQEIKINGNIQKGELITYNLTELIKPEAYEVRLTPLTKFGEGDSTIRVIKYSAPVNPHLREAYCFSFFYHMYGQHIGVLNVYLRLKGQTTIENPLWSSSGNKGQRWNEAHVNIYPITSFQLIFEGIRGPGIEGDIAIDDVSIAEGECAKQDLATKNSVD
modifications: left off: GFP, end not stated, kept
notes: MDGA2 lacking the N-terminal region (aa 746–833) of MAM domain
interaction with TrkB (Co-IP): abolished the interaction between MDGA2 and TrkB

From publication PMC11960969, “Mdga2 deficiency leads to an aberrant activation of BDNF/TrkB signaling that underlies autism-relevant synaptic and behavioral changes in mice” (PLOS Biology, 2025)
